Assay results taken from patent US20200079833A1 (AstraZeneca / MedImmune, published 2020).
Starred links: 1 amine or outer side, 2 acyl side, 3 side chain; linkers in the order of their positions; H or OH if unused. Non-standard residues stand in square brackets, D forms with d. Groups on a side chain read outwards from the residue. Primed or numbered codes have the meaning given here. No end group written: not given here. *: point of attachment. γGlu = O=C(O)[C@H](CCC(=O)[*:2])N[*:1]; Stearoyl = CCCCCCCCCCCCCCCCCC(=O)*; Palmitoyl = CCCCCCCCCCCCCCCC(=O)*; αMeF = C[C@](N)(Cc1ccccc1)C(=O)O; αMeK = C[C@](N)(CCCCN)C(=O)O; αMeS = C[C@](N)(CO)C(=O)O; PEG2′ = not defined here; Aib = CC(C)(N)C(=O)O

T1: glucose-dependent insulinotropic peptide (gastric inhibitory polypeptide) receptor (human, UniProt P48546 22-466)
T1 sequence (looked up): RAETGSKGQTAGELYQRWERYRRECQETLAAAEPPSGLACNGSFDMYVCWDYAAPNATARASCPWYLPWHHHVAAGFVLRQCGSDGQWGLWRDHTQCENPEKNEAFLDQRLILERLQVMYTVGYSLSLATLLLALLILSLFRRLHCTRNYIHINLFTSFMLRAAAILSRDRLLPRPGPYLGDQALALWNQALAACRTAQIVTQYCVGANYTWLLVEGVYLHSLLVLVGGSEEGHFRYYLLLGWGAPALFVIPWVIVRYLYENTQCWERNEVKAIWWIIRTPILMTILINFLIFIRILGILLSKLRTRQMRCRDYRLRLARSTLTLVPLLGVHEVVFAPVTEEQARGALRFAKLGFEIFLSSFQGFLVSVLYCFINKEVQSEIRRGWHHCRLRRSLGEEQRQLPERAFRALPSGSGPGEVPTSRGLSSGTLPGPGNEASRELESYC


Columns and labels:
Test in all cases: cell-based or functional assay
glucagon receptor = glucagon receptor (human, UniProt P47871 26-477)
GLP-1 receptor = GLP-1 receptor (human, UniProt P43220 24-463)
[1] = target: T1, glucose-dependent insulinotropic …

Sequence of glucagon receptor (P47871 26-477): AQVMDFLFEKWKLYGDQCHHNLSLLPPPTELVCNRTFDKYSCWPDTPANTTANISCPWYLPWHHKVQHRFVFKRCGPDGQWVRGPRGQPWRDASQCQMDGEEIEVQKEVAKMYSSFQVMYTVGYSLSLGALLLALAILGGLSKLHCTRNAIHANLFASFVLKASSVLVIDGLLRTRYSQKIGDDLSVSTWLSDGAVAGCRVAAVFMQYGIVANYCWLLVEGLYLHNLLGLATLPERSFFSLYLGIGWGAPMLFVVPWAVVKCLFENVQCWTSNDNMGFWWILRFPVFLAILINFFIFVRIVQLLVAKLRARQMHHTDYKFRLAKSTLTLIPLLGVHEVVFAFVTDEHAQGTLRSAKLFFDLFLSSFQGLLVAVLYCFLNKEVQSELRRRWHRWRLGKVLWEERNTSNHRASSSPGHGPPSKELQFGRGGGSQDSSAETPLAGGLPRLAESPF

| Binder | Primary assay EC50 (cAMP), n1 (glucagon receptor) [nM] | Primary assay EC50 (cAMP), n2 (glucagon receptor) [nM] | Primary assay EC50 (cAMP), Mean pM GLP-1R (GLP-1 receptor) [pM] | Primary assay EC50 (cAMP), n1 (GLP-1 receptor) [nM] | Primary assay EC50 (cAMP), n2 (GLP-1 receptor) [nM] | Primary assay EC50 (cAMP), n1 [1] [nM] | Primary assay EC50 (cAMP), n2 [1] [nM] |
| --- | --- | --- | --- | --- | --- | --- | --- |
| H[Aib]EGS[αMeF]TSDV[αMeS]S[αMeF]LEGEAAK([PEG2′-PEG2′-γGlu-Stearoyl])E[αMeF]IA[αMeF]VV[αMeK]GG-NH2 [SEQ ID NO 33] | 25 | 25 | 100 | 0.064 | 0.14 | 25 | 25 |
| H[Aib]EGS[αMeF]TSDVSS[αMeF]LEGEAAKE[αMeF]IA[αMeF]VVKGGK([PEG2′-PEG2′-γGlu-Stearoyl])-NH2 [SEQ ID NO 38] | 25 | 25 | 72 | 0.062 | 0.082 | 25 | 25 |
| H[Aib]EGS[αMeF]TDDV[αMeS]S[αMeF]LEGEAAK([γGlu-Palmitoyl])E[αMeF]IA[αMeF]VV[αMeK]GG-NH2 (N-terminus assumed; SMILES CCCCCCCCCCCCCCCC(=O)N[C@@H](CCC(=O)NCCCC[C@H](NC(=O)[C@H](C)NC(=O)[C@H](C)NC(=O)[C@H](CCC(=O)O)NC(=O)CNC(=O)[C@H](CCC(=O)O)NC(=O)[C@H](CC(C)C)NC(=O)[C@](C)(Cc1ccccc1)NC(=O)[C@H](CO)NC(=O)[C@](C)(CO)NC(=O)[C@@H](NC(=O)[C@H](CC(=O)O)NC(=O)[C@H](CC(=O)O)NC(=O)[C@@H](NC(=O)[C@](C)(Cc1ccccc1)NC(=O)[C@H](CO)NC(=O)CNC(=O)[C@H](CCC(=O)O)NC(=O)C(C)(C)NC(=O)[C@@H](N)Cc1c[nH]cn1)[C@@H](C)O)C(C)C)C(=O)N[C@@H](CCC(=O)O)C(=O)N[C@@](C)(Cc1ccccc1)C(=O)N[C@H](C(=O)N[C@@H](C)C(=O)N[C@@](C)(Cc1ccccc1)C(=O)N[C@H](C(=O)N[C@H](C(=O)N[C@@](C)(CCCCN)C(=O)NCC(=O)NCC(N)=O)C(C)C)C(C)C)[C@@H](C)CC)C(=O)O) [SEQ ID NO 37] | 92 | 28 | 4500 | 7.3 | 1.7 | 92 | 28 |
| H[Aib]EGS[αMeF]TSDV[αMeS]S[αMeF]LEGEAAK([γGlu-Palmitoyl])E[αMeF]IA[αMeF]VV[αMeK]GG-NH2 (N-terminus assumed; SMILES CCCCCCCCCCCCCCCC(=O)N[C@@H](CCC(=O)NCCCC[C@H](NC(=O)[C@H](C)NC(=O)[C@H](C)NC(=O)[C@H](CCC(=O)O)NC(=O)CNC(=O)[C@H](CCC(=O)O)NC(=O)[C@H](CC(C)C)NC(=O)[C@](C)(Cc1ccccc1)NC(=O)[C@H](CO)NC(=O)[C@](C)(CO)NC(=O)[C@@H](NC(=O)[C@H](CC(=O)O)NC(=O)[C@H](CO)NC(=O)[C@@H](NC(=O)[C@](C)(Cc1ccccc1)NC(=O)[C@H](CO)NC(=O)CNC(=O)[C@H](CCC(=O)O)NC(=O)C(C)(C)NC(=O)[C@@H](N)Cc1c[nH]cn1)[C@@H](C)O)C(C)C)C(=O)N[C@@H](CCC(=O)O)C(=O)N[C@@](C)(Cc1ccccc1)C(=O)N[C@H](C(=O)N[C@@H](C)C(=O)N[C@@](C)(Cc1ccccc1)C(=O)N[C@H](C(=O)N[C@H](C(=O)N[C@@](C)(CCCCN)C(=O)NCC(=O)NCC(N)=O)C(C)C)C(C)C)[C@@H](C)CC)C(=O)O) [SEQ ID NO 34] | 93 | 93 | 43 | 0.039 | 0.048 | 93 | 93 |
| H[Aib]EGS[αMeF]TSDVSS[αMeF]LEGEAAK([γGlu-Palmitoyl])E[αMeF]IA[αMeF]VVKGG-NH2 (N-terminus assumed; SMILES CCCCCCCCCCCCCCCC(=O)N[C@@H](CCC(=O)NCCCC[C@H](NC(=O)[C@H](C)NC(=O)[C@H](C)NC(=O)[C@H](CCC(=O)O)NC(=O)CNC(=O)[C@H](CCC(=O)O)NC(=O)[C@H](CC(C)C)NC(=O)[C@](C)(Cc1ccccc1)NC(=O)[C@H](CO)NC(=O)[C@H](CO)NC(=O)[C@@H](NC(=O)[C@H](CC(=O)O)NC(=O)[C@H](CO)NC(=O)[C@@H](NC(=O)[C@](C)(Cc1ccccc1)NC(=O)[C@H](CO)NC(=O)CNC(=O)[C@H](CCC(=O)O)NC(=O)C(C)(C)NC(=O)[C@@H](N)Cc1c[nH]cn1)[C@@H](C)O)C(C)C)C(=O)N[C@@H](CCC(=O)O)C(=O)N[C@@](C)(Cc1ccccc1)C(=O)N[C@H](C(=O)N[C@@H](C)C(=O)N[C@@](C)(Cc1ccccc1)C(=O)N[C@H](C(=O)N[C@H](C(=O)N[C@@H](CCCCN)C(=O)NCC(=O)NCC(N)=O)C(C)C)C(C)C)[C@@H](C)CC)C(=O)O) [SEQ ID NO 41] | 94 | 28 | 147 | 0.24 | 0.051 | 94 | 28 |
| HXEGTFTSDVSSYLEGQAAKEFIAWLVKGRK (Aib 2; K(ε-(PEG)2-(PEG)2-γE-Stearate) after R30; C-terminal amide) [SEQ ID NO 6] | 22 | 22 | 5.1 | 0.0048 | 0.0053 | 22 | 22 |
| H[Aib]EGS[αMeF]TDDV[αMeS]S[αMeF]LEGEAAK([PEG2′-PEG2′-γGlu-Stearoyl])E[αMeF]IA[αMeF]VV[αMeK]GG-NH2 [SEQ ID NO 36] | 84 | 25 | 44200 | 63 | 25 | 84 | 25 |
| H[Aib]EGS[αMeF]TDDV[αMeS]S[αMeF]LEGEAA[αMeK]E[αMeF]IA[αMeF]VV[αMeK]GGK([γGlu-Palmitoyl])-NH2 (N-terminus assumed; SMILES CCCCCCCCCCCCCCCC(=O)N[C@@H](CCC(=O)NCCCC[C@H](NC(=O)CNC(=O)CNC(=O)[C@](C)(CCCCN)NC(=O)[C@@H](NC(=O)[C@@H](NC(=O)[C@](C)(Cc1ccccc1)NC(=O)[C@H](C)NC(=O)[C@@H](NC(=O)[C@](C)(Cc1ccccc1)NC(=O)[C@H](CCC(=O)O)NC(=O)[C@](C)(CCCCN)NC(=O)[C@H](C)NC(=O)[C@H](C)NC(=O)[C@H](CCC(=O)O)NC(=O)CNC(=O)[C@H](CCC(=O)O)NC(=O)[C@H](CC(C)C)NC(=O)[C@](C)(Cc1ccccc1)NC(=O)[C@H](CO)NC(=O)[C@](C)(CO)NC(=O)[C@@H](NC(=O)[C@H](CC(=O)O)NC(=O)[C@H](CC(=O)O)NC(=O)[C@@H](NC(=O)[C@](C)(Cc1ccccc1)NC(=O)[C@H](CO)NC(=O)CNC(=O)[C@H](CCC(=O)O)NC(=O)C(C)(C)NC(=O)[C@@H](N)Cc1c[nH]cn1)[C@@H](C)O)C(C)C)[C@@H](C)CC)C(C)C)C(C)C)C(N)=O)C(=O)O) [SEQ ID NO 35] | 89 | 27 | 3260 | 4.9 | 1.7 | 89 | 27 |
| H[Aib]EGS[αMeF]TSDVSS[αMeF]LEGEAAKE[αMeF]IA[αMeF]VVKGGK([γGlu-Palmitoyl])-NH2 (N-terminus assumed; SMILES CCCCCCCCCCCCCCCC(=O)N[C@@H](CCC(=O)NCCCC[C@H](NC(=O)CNC(=O)CNC(=O)[C@H](CCCCN)NC(=O)[C@@H](NC(=O)[C@@H](NC(=O)[C@](C)(Cc1ccccc1)NC(=O)[C@H](C)NC(=O)[C@@H](NC(=O)[C@](C)(Cc1ccccc1)NC(=O)[C@H](CCC(=O)O)NC(=O)[C@H](CCCCN)NC(=O)[C@H](C)NC(=O)[C@H](C)NC(=O)[C@H](CCC(=O)O)NC(=O)CNC(=O)[C@H](CCC(=O)O)NC(=O)[C@H](CC(C)C)NC(=O)[C@](C)(Cc1ccccc1)NC(=O)[C@H](CO)NC(=O)[C@H](CO)NC(=O)[C@@H](NC(=O)[C@H](CC(=O)O)NC(=O)[C@H](CO)NC(=O)[C@@H](NC(=O)[C@](C)(Cc1ccccc1)NC(=O)[C@H](CO)NC(=O)CNC(=O)[C@H](CCC(=O)O)NC(=O)C(C)(C)NC(=O)[C@@H](N)Cc1c[nH]cn1)[C@@H](C)O)C(C)C)[C@@H](C)CC)C(C)C)C(C)C)C(N)=O)C(=O)O) [SEQ ID NO 39] | 27 | 27 | 33 | 0.033 | 0.033 | 27 | 27 |
| H[Aib]EGS[αMeF]TSDVSS[αMeF]LEGEAAK([PEG2′-PEG2′-γGlu-Stearoyl])E[αMeF]IA[αMeF]VVKGG-NH2 [SEQ ID NO 40] | 85 | 26 | 1170 | 1.8 | 0.57 | 85 | 26 |
